How the values were obtained:
[1] = target: T1, Ap-EncK138^TEV-His
T1 chain: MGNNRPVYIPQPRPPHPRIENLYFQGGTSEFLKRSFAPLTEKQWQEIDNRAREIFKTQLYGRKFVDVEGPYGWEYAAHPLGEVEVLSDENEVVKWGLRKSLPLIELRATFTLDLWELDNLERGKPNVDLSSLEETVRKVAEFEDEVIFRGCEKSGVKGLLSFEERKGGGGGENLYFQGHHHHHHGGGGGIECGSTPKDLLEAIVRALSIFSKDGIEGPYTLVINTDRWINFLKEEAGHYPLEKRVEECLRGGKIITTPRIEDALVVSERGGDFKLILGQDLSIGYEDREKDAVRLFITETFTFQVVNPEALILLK

[2] = target: T2, HB-EncV57^TEVK138^TEV-His with a GT linker between the TEV site and the N-terminus of Enc
T2 chain: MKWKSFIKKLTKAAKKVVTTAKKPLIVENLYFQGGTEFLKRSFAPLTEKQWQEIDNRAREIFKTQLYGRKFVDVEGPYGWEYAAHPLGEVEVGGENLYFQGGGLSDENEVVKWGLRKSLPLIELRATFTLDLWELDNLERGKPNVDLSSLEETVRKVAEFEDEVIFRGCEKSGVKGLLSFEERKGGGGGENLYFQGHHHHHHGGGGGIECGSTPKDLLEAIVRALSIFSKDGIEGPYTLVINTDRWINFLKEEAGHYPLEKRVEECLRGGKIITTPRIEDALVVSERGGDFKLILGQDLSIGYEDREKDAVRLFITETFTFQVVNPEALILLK

[3] = target: T3, HB-EncK138^TEV-His
T3 chain: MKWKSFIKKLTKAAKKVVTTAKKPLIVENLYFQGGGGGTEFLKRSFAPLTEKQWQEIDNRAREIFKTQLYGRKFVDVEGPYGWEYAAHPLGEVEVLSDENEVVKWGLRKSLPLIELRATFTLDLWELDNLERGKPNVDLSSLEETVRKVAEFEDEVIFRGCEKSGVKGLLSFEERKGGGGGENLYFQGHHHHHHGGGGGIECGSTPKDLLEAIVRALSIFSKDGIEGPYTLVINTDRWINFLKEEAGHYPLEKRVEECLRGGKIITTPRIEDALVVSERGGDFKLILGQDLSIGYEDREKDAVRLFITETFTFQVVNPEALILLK

[4] = target: T4, Ap-EncK71^TEVK138^TEV-His
T4 chain: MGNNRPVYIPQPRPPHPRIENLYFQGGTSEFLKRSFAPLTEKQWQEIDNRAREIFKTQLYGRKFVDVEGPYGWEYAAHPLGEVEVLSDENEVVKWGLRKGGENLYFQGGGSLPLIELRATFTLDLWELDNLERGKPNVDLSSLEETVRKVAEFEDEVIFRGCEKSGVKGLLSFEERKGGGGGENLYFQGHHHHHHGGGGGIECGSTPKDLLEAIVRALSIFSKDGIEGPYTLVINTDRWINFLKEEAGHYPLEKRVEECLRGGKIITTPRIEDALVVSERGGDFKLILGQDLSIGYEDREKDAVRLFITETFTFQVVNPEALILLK

[5] = target: T5, HB-EncK138^TEV-His with a GT linker between the TEV site and the N-terminus of Enc
T5 chain: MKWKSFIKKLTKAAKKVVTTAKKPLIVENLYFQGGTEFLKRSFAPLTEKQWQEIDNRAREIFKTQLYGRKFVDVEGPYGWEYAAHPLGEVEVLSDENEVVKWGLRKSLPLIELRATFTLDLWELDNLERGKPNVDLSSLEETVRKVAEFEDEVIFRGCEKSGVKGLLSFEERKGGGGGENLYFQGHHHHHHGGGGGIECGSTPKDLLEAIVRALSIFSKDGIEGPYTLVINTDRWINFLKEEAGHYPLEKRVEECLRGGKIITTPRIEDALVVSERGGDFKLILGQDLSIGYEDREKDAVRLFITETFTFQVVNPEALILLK

[6] = target: HB-EncK138^TEV-His, EncD60^TEVK138^TEV-His, and HB-EncV57^TEVK138^TEV-His
[7] = target: T6, HB-EncD60^TEVK138^TEV-His
T6 chain: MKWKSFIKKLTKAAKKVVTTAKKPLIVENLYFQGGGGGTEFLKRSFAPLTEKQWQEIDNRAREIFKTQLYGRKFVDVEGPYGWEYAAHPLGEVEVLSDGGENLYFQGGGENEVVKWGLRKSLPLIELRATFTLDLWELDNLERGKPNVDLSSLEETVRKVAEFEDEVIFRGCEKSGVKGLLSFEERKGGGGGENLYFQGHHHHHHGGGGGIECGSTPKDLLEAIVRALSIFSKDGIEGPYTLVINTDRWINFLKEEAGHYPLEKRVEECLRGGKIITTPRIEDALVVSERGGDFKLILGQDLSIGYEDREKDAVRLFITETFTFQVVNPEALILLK

[8] = target: T7, Ap-EncD60^TEVK138^TEV-His
T7 chain: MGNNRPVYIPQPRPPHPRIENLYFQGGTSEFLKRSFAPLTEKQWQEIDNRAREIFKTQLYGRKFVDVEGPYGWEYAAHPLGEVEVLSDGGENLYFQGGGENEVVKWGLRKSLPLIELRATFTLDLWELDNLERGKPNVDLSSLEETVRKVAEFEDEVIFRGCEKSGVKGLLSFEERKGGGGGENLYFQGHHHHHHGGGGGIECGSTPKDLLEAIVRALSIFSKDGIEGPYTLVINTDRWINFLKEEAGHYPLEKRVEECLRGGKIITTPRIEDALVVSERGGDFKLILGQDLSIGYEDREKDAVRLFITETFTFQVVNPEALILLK

[9] = target: T8, HB-EncD60^TEVK138^TEV-His with a GT linker between the TEV site and the N-terminus of Enc
T8 chain: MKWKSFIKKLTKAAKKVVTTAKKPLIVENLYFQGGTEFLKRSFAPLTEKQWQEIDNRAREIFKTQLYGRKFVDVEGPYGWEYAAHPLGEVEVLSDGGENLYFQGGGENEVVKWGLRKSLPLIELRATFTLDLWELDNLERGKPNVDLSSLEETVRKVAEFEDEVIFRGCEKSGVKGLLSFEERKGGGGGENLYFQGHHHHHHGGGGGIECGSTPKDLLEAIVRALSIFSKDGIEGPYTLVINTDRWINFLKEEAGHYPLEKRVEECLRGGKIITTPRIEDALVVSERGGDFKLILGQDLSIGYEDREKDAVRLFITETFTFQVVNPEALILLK

[10] = target: T9, HB-EncV57^TEVK138^TEV-His
T9 chain: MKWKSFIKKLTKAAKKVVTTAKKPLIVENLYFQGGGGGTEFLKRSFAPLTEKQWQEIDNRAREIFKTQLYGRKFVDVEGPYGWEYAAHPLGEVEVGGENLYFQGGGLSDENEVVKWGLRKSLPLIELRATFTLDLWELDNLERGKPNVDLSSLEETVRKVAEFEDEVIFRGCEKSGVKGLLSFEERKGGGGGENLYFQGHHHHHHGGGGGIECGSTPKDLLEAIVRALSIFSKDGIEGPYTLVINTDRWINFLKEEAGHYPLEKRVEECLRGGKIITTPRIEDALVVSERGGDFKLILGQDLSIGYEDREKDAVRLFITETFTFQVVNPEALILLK

B1: TEV protease (protein)
chain: GESLFKGPRDYNPISSTICHLTNESDGHTTSLYGIGFGPFIITNKHLFRRNNGTLLVQSLHGVFKVKNTTTLQQHLIDGRDMIIIRMPKDFPPFPQKLKFREPQREERICLVTTNFQTKSMSSMVSDTSCTFPSSDGIFWKHWIQTKDGQCGSPLVSTRDGFIVGIHSASNFTNTNNYFTSVPKNFMELLTNQEAQQWVSGWRLNADSVLWGGHKVFMSKPEEPFQPVKEATQLMNELVYSQ
[1]
  TEV protease digestion, SDS-PAGE and anti-TEV site Western blot (up to 20 h at 30 C): not well digested by TEV protease
[2]
  release of HB peptide after TEV protease digestion (SDS-PAGE): did not result in detectable release of HB peptide by SDS-PAGE
[3]
  release of HBCM2 peptide after TEV protease digestion (densitometry): released fewer peptide per fusion protein
  release of HBCM2 peptide after TEV protease digestion (overnight, 4 C; Tris-Tricine gel): All constructs were found to at least partially release HBCM2 peptide
[4]
  TEV protease digestion, SDS-PAGE and anti-TEV site Western blot (up to 20 h at 30 C): construct 125 (Ap-Encap(K71, K138)) is digested by TEV protease to near completion
[5]
  release of HB peptide after TEV protease digestion (SDS-PAGE): did not result in detectable release of HB peptide by SDS-PAGE
[6]
  relative HB/HB-Enc ratio (densitometry after TEV protease digestion): a relative HB/HB-Enc ratio of 0.26 to 0.56
[7]
  release of HBCM2 peptide after TEV protease digestion (densitometry): released fewer peptide per fusion protein
  release of HBCM2 peptide after TEV protease digestion (overnight, 4 C; Tris-Tricine gel): All constructs were found to at least partially release HBCM2 peptide
[8]
  TEV protease digestion, SDS-PAGE and anti-TEV site Western blot (up to 20 h at 30 C): not well digested by TEV protease
[9]
  release of HB peptide after TEV protease digestion (SDS-PAGE): did not result in detectable release of HB peptide by SDS-PAGE
[10]
  release of HBCM2 peptide after TEV protease digestion (densitometry): released fewer peptide per fusion protein
  release of HBCM2 peptide after TEV protease digestion (overnight, 4 C; Tris-Tricine gel): All constructs were found to at least partially release HBCM2 peptide

From US20190276501
